The target in test [1] is HLA-A*69:01. In words: IEDB peptide-MHC binding, purified MHC/direct/fluorescence; filed as Kd, often an IC50 or EC50 that approximates it; ≥ and ≤ were set here for values at or beyond the usual limits of such assays.
A further test concerns the target HLA-A*02:12. The description is as above.
In the next test the target is HLA-A*02:11. Described as above.
In the next test the target is HLA-A*02:19. Described as above.
A further test addresses HLA-A*02:17. In words: IEDB peptide-MHC binding, purified MHC/competitive/radioactivity; filed as Kd, often an IC50 or EC50 that approximates it; ≥ and ≤ were set here for values at or beyond the usual limits of such assays. Particulars: source organism: Dengue virus 1 Singapore/S275/1990.
The next test deals with HLA-A*29:02. In words: IEDB peptide-MHC binding, purified MHC/competitive/fluorescence; filed as Kd, often an IC50 or EC50 that approximates it; ≥ and ≤ were set here for values at or beyond the usual limits of such assays.
The next test deals with HLA-B*27:03. The test is described as above. The settings on record: source organism: Orthohantavirus tulaense.
The target of test [2] is HLA-B*18:01. The test is described as above. The settings on record: source organism: Orthohantavirus tulaense.
The target in test [3] is HLA-A*69:01. The test is described as above. The settings on record: source organism: Orthohantavirus tulaense.
For test [4], the target named is HLA-B*57:01. The description is as above. Particulars: source organism: Orthohantavirus tulaense.
The target of test [5] is HLA-A*26:01. The test is described as above. Particulars: source organism: Orthohantavirus tulaense.
In the next test the target is HLA-B*51:01. The description is as above. The settings on record: source organism: Orthohantavirus tulaense.
In the next test the target is HLA-A*68:02. In words: IEDB peptide-MHC binding, purified MHC/direct/fluorescence; filed as Kd, often an IC50 or EC50 that approximates it; ≥ and ≤ were set here for values at or beyond the usual limits of such assays. Particulars: source organism: Orthohantavirus tulaense.
The target in the next test is HLA-A*02:01. The test is described as above.
Test [6] concerns the target HLA-A*03:01. Described as above.
In test [7] the target is HLA-B*57:01. Briefly: IEDB peptide-MHC binding, purified MHC/competitive/radioactivity; filed as Kd, often an IC50 or EC50 that approximates it; ≥ and ≤ were set here for values at or beyond the usual limits of such assays.
The target in test [8] is HLA-A*03:01. In words: IEDB peptide-MHC binding, purified MHC/competitive/fluorescence; filed as Kd, often an IC50 or EC50 that approximates it; ≥ and ≤ were set here for values at or beyond the usual limits of such assays.
Test [9] addresses HLA-A*31:01. Described as above.
The target of a further test is HLA-B*27:05. Briefly: IEDB peptide-MHC binding, purified MHC/direct/fluorescence; filed as Kd, often an IC50 or EC50 that approximates it; ≥ and ≤ were set here for values at or beyond the usual limits of such assays.
Another test has as its target HLA-B*48:01. The test is described as above. The settings on record: source organism: West Nile virus.
The target in test [10] is HLA-A*01:01. In words: IEDB peptide-MHC binding, purified MHC/competitive/fluorescence; filed as Kd, often an IC50 or EC50 that approximates it; ≥ and ≤ were set here for values at or beyond the usual limits of such assays. Particulars: source organism: Xenopus laevis.
The target of the next test is HLA-A*02:03. In words: IEDB peptide-MHC binding, purified MHC/direct/fluorescence; filed as Kd, often an IC50 or EC50 that approximates it; ≥ and ≤ were set here for values at or beyond the usual limits of such assays. The settings on record: source organism: Mycobacterium tuberculosis F11.
The target of another test is HLA-B*15:01. The description is as above.
The target of test [11] is HLA-B*18:01. Described as above.
The target in test [12] is HLA-B*57:01. The test is described as above. Particulars: source organism: West Nile virus.
The target of the next test is HLA-B*46:01. The description is as above. Particulars: source organism: West Nile virus.
For another test, the target named is HLA-B*44:02. The test is described as above.
The target in test [13] is HLA-A*01:01. The test is described as above.
In a further test the target is HLA-B*58:01. The description is as above.
In the next test the target is HLA-A*11:01. The description is as above.
For a further test, the target named is HLA-B*07:02. The test is described as above.
In another test the target is HLA-B*40:01. The test is described as above.
For the next test, the target named is HLA-A*24:03. Described as above. Particulars: source organism: Campylobacter jejuni.
Test [14] addresses HLA-A*31:01. The test is described as above. Particulars: source organism: Campylobacter jejuni.
Test [15] deals with HLA-A*26:01. Described as above. Particulars: source organism: Campylobacter jejuni.
The next test concerns the target HLA-B*08:01. Described as above. The settings on record: source organism: Campylobacter jejuni.
[16] abbreviates: source organism: Dengue virus 2 Thailand/16681/84.
Where [17] appears, read: source organism: Escherichia coli.
Where [18] appears, read: source organism: West Nile virus.
Where [19] appears, read: source organism: Escherichia coli O157:H7.
Setting [20] is: source organism: Orthohantavirus hantanense.
Where [21] appears, read: source organism: Hantaanvirus CGRn93P8.
[22] abbreviates: source organism: Bacillus anthracis str. A0488.
Setting [23] is: source organism: Influenza A virus (A/swine/Bakum/5/95(H1N1)).
[24] abbreviates: source organism: Campylobacter jejuni.
Setting [25] is: source organism: Influenza A virus (A/quail/Hong Kong/FY298/00(H9N2)).
Where [26] appears, read: source organism: Influenza A virus.

A word on the Kd: it is the equilibrium constant for the complex coming apart. With KMDIGVPLL, the Kd with HLA-A*69:01 [1] (source organism: Dengue virus 1 Singapore/S275/1990) was at least 20 µM; with HLA-A*02:12 (setting [16]), 0.004 µM; with HLA-A*02:11 (setting [16]), at most 0.001 µM; in the test with HLA-A*02:19 (setting [16]) it was 0.016 µM; with HLA-A*02:17, 1.25 µM.

In the test with HLA-A*29:02 (source organism: Clostridium botulinum E3 str. Alaska E43), GIWHGPYWH gave a Kd of 0.231 µM.

VGGDIRTLY came in with a Kd in the test with HLA-A*29:02 (source organism: Coxiella burnetii RSA 331) of 0.0686 µM.

With IVNMGNPDY, in the test with HLA-A*29:02 (source organism: Encephalitozoon cuniculi GB-M1), the dissociation constant Kd came out at 0.0544 µM.

With FMFNELLAL, the Kd in the test with HLA-B*27:03, with HLA-B*18:01 [2], in the test with HLA-A*69:01 [3], with HLA-B*57:01 [4], in the test with HLA-A*26:01 [5] and with HLA-B*51:01 was at least 20 µM in each case. Besides, the results for the Kd with HLA-A*68:02, in the test with HLA-A*02:01 (source organism: Orthohantavirus puumalaense) and with HLA-A*03:01 [6] (source organism: Orthohantavirus tulaense) were at least 20 µM, 0.0002 µM and at least 20 µM, respectively.

Take SSSMRKTDW: in the test with HLA-B*57:01 [7] (source organism: Dengue virus 3 Martinique/1243/1999), the equilibrium dissociation constant (Kd) is 0.416 µM.

In the case of STSLLFLNDM, in the test with HLA-B*57:01 [7] (source organism: Dengue virus 4 Philippines/H241/1956), the Kd was 0.0864 µM.

Regarding ALRGVAVGR, the Kd in the test with HLA-A*03:01 [8] (setting [17]) is 0.0097 µM; in the test with HLA-A*31:01 [9] (setting [17]), 0.0038 µM.

Consider KRVQEVKGY, for which the figures for the Kd with HLA-B*27:05 (setting [18]) and with HLA-B*48:01 were 0.782 µM and at least 20 µM, respectively.

With GSASPTPPY, the dissociation constant (Kd) with HLA-A*29:02 (source organism: Xenopus laevis) is 0.0037 µM; with HLA-A*01:01 [10] it was 0.0427 µM.

FLFGDDDAL: the Kd was 0.002 µM in the test with HLA-A*02:03, 2.11 µM in the test with HLA-A*69:01 [1] (source organism: Mycobacterium tuberculosis) and 0.003 µM with HLA-A*02:11 (source organism: Mycobacterium tuberculosis F11).

As to FTRYRKEAI, the equilibrium dissociation constant (Kd) with HLA-B*27:05 (setting [18]), with HLA-B*15:01 (setting [18]), with HLA-B*18:01 [11] (setting [18]), with HLA-B*57:01 [12], with HLA-B*46:01 and with HLA-B*44:02 (setting [18]) was at least 20 µM throughout. Besides, the Kd in the test with HLA-A*02:01 (setting [18]), with HLA-A*03:01 [6] (setting [18]), with HLA-A*01:01 [13] (setting [18]), with HLA-B*58:01 (setting [18]), with HLA-A*11:01 (setting [18]) and with HLA-B*48:01 was at least 20 µM throughout. For the same sequence, the Kd with HLA-B*07:02 (setting [18]) is at least 20 µM.

For MLRLWWIPY, the Kd in the test with HLA-A*31:01 [9] (source organism: Escherichia coli HS) was at least 20 µM; with HLA-A*03:01 [6] (setting [19]), 10.1 µM; in the test with HLA-A*11:01 (setting [19]), at least 20 µM.

As for QMISPVMSV, the dissociation constant (Kd) with HLA-A*69:01 [1] (setting [20]) is 0.0012 µM; with HLA-A*02:12 (setting [21]) it was 0.003 µM; with HLA-A*02:11 (setting [21]), at most 0.001 µM; with HLA-A*02:01 (setting [20]), at most 0.001 µM; with HLA-A*02:19 (setting [21]) it was 0.007 µM.

As for IEADIEHFL, the Kd worked out at 0.0588 µM in the test with HLA-B*18:01 [11] (setting [20]), 7.67 µM with HLA-B*44:02 (setting [20]) and 0.0012 µM in the test with HLA-B*40:01 (setting [20]).

For the sequence KTTLSLDYAW, in the test with HLA-B*57:01 [7] (source organism: Dengue virus 1 Brazil/97-11/1997), the Kd amounted to 0.000847 µM.

As to KLSSMAAER, the equilibrium dissociation constant (Kd) stood at 0.088 µM in the test with HLA-A*03:01 [8] (setting [22]) and 0.016 µM in the test with HLA-A*31:01 [9] (setting [22]).

In the case of GINDRNFWR, the Kd with HLA-A*31:01 [9] (source organism: Influenza A virus (A/swine/Italy/1509-6/97(H1N1))) amounted to 0.00317 µM; with HLA-A*03:01 [6] (setting [23]), 4.14 µM; with HLA-A*11:01 (setting [23]) it was 0.147 µM.

Regarding VFKVKLHEI, the Kd with HLA-A*24:03 was 0.0923 µM; in the test with HLA-B*27:05 (setting [24]), at least 20 µM; with HLA-B*15:01 (setting [24]), at least 20 µM; with HLA-A*69:01 [1] (setting [24]), at least 20 µM; with HLA-B*44:02 (setting [24]), at least 20 µM; in the test with HLA-B*40:01 (setting [24]) it was at least 20 µM. Besides, the dissociation constant Kd with HLA-A*02:01 (setting [24]) was 18.5 µM; with HLA-A*03:01 [6] (setting [24]), at least 20 µM; with HLA-A*01:01 [13] (setting [24]), at least 20 µM; with HLA-A*31:01 [14], at least 20 µM; with HLA-A*26:01 [15], at least 20 µM; in the test with HLA-B*58:01 (setting [24]), at least 20 µM. The Kd in the test with HLA-A*11:01 (setting [24]) was at least 20 µM; with HLA-B*08:01 it was 0.391 µM; in the test with HLA-B*07:02 (setting [24]) it was at least 20 µM.

Take NTMTKDAER: the results for the Kd with HLA-A*31:01 [9] (source organism: Influenza A virus (A/Fort Monmouth/1/1947-mouse adapted(H1N1))), with HLA-A*03:01 [6] (setting [25]) and in the test with HLA-A*11:01 (setting [25]) were 0.108 µM, at least 20 µM and at least 20 µM, respectively.

Consider RVDGLELKK, for which the Kd was at least 20 µM with HLA-A*31:01 [9] (source organism: Yellow fever virus) and 0.0188 µM with HLA-A*11:01 (source organism: Yellow fever virus 17D).

LIAPRGYFK: the values for the Kd with HLA-A*03:01 [8] (setting [26]) and with HLA-A*31:01 [9] (setting [26]) were 0.0107 µM and 0.0339 µM, respectively.

The record behind these values is the Immune Epitope Database (IEDB).
